Assay results reported in the supplement of paper PMC6379048.

How the values were obtained:
Assay in all cases: EC50 of free RNA motif oligo competing protein binding to immobilised probe
[1] = biological target: ELAVL1 (UniProt Q15717)
Outline: (§1)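 HEK293-FT lysate (2.5 mg protein/well) was pre-incubated 1 h at 4°C with free RNA oligos (0 nM to 30 μM), then 30 min at 4°C with the same 5′-amino-C6 oligos coupled to NHS-Sepharose beads. Bound proteins were quantified by label-free LC-MS/MS in three biological replicates and two independent experiments, and normalised to the water control. EC50 came from a four-parameter log-logistic fit; Kd is EC50 times a protein-dependent depletion factor.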

[2] = biological target: T1, TFIP11 (UniProt Q9UBB9)
T1 sequence: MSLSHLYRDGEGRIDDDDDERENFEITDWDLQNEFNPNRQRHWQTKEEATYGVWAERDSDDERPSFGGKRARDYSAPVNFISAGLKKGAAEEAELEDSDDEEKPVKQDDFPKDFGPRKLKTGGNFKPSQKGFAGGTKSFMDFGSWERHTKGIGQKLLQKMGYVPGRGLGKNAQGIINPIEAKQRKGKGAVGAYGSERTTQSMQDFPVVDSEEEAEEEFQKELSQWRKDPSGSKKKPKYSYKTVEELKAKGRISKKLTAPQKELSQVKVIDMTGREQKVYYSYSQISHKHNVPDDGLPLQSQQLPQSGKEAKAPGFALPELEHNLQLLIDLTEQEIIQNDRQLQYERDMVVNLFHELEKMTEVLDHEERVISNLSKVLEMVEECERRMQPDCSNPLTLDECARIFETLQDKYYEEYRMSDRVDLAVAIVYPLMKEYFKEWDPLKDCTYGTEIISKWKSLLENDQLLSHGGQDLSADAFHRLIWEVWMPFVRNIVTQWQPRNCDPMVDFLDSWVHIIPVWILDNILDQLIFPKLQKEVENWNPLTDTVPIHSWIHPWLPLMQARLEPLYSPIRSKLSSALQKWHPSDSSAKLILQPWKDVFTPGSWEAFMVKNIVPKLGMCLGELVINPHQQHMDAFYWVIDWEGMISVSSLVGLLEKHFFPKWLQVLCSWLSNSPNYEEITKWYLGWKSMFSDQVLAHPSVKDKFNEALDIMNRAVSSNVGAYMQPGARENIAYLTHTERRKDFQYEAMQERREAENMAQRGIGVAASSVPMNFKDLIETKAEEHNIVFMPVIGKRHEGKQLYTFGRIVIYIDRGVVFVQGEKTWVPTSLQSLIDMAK
Outline: as §1

[3] = biological target: T2, CSTF3 (UniProt Q12996)
T2 sequence: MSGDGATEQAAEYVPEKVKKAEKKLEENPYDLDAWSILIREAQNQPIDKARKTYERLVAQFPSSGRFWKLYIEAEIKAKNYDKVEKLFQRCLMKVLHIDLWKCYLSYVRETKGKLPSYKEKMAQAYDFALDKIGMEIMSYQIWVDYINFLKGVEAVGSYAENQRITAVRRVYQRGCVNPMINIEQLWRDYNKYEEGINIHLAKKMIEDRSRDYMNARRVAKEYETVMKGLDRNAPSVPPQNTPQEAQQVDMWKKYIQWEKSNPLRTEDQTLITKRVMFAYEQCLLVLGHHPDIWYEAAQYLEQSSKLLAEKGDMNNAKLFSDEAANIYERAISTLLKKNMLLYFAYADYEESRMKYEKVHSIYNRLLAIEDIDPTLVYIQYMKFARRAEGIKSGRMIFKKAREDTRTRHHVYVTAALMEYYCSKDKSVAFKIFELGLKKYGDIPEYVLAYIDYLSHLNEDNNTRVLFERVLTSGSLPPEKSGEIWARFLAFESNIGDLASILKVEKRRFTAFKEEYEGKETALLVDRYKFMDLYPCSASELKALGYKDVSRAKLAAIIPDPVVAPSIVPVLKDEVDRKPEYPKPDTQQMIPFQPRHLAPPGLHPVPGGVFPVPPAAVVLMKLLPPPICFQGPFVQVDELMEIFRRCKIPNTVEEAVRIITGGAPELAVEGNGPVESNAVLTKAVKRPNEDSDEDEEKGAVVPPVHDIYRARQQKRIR
Outline: as §1

[4] = biological target: T3, FUBP3 (UniProt Q96I24)
T3 sequence: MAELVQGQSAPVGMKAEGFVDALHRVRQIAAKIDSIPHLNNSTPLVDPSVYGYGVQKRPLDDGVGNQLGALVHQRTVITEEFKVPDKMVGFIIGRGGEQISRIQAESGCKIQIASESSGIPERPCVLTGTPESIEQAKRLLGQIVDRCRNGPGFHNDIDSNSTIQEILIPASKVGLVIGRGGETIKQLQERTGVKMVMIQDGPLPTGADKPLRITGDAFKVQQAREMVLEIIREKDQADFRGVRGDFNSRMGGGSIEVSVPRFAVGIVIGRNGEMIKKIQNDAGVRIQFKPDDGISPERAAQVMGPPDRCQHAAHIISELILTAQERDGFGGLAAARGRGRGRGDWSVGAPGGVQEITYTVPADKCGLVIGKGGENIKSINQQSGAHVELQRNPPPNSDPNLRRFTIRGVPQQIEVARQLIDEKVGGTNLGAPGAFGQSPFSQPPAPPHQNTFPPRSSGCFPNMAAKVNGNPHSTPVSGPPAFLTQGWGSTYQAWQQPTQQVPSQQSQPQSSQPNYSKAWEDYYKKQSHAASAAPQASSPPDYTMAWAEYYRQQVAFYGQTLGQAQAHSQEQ
Outline: as §1

[5] = biological target: LSM3 (UniProt P62310)
Outline: as §1

[6] = biological target: ZCCHC24 (UniProt Q8N2G6)
Outline: as §1

[7] = biological target: SLIRP (UniProt Q9GZT3)
Outline: as §1

[8] = biological target: T4, SRSF3 (UniProt P84103)
T4 sequence: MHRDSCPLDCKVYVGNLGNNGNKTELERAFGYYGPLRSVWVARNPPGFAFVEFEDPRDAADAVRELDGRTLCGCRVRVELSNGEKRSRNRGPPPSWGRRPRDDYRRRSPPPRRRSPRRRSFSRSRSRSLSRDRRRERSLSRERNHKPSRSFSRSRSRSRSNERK
Outline: as §1

LSM3, sequence (P62310 whole entry): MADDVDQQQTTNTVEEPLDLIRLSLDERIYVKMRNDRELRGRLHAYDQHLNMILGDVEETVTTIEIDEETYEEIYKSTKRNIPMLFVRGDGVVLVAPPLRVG
ELAVL1, sequence (Q15717 whole entry): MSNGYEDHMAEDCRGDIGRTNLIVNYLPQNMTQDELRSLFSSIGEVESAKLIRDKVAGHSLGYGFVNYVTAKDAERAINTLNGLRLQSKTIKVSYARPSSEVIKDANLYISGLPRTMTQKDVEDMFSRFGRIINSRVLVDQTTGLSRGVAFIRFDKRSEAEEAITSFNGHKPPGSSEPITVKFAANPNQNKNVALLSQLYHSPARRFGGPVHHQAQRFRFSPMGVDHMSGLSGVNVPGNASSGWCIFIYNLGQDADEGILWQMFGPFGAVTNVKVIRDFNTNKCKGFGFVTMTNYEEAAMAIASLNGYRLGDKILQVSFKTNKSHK
ZCCHC24, sequence (Q8N2G6 whole entry): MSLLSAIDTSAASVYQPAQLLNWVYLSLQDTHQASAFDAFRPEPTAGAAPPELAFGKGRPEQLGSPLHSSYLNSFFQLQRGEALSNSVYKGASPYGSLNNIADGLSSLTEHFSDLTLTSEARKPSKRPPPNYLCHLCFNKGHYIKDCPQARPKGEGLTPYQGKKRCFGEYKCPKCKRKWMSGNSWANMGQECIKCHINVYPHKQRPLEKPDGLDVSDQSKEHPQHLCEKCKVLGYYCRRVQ

Sequence | EC50 [1] [nM] | EC50 [2] [nM] | EC50 [3] [nM] | EC50 [4] [nM] | EC50 [5] [nM] | EC50 [6] [nM] | EC50 [7] [nM] | EC50 [8] [nM]
UAUUUAU | 3040 | 2390 | 600 | 802 | 694 | 2520 | – | –
AAUAAA | 5060 | 2350 | 80.7 | 2150 | 358 | 545 | 1580 | 3030
CUGUCCU | – | – | – | – | – | – | 1530 | 2620
